Experimental data published in patent US20160368985A1 (published 2016).
Each block holds one binder with its values, some of them ahead of it.

Tests used:
[1] = molecular target: T1, cynomolgus E11 protein (E11 domain of cynomolgus FcRH5), soluble (cynomolgus monkey); test: SPR BIACORE T200, IgG capture, monovalent
T1 chain: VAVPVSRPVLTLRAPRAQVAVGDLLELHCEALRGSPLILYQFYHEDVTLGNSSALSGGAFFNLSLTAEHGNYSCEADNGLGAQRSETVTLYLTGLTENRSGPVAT

[2] = molecular target: T2, human E11 protein (E11 domain of human FcRH5), soluble (human, UniProt Q96RD9 745-850); test: SPR BIACORE T200, IgG capture, monovalent
T2 construct: Expressed in CHO cells; also called human E11 domain
T2 sequence: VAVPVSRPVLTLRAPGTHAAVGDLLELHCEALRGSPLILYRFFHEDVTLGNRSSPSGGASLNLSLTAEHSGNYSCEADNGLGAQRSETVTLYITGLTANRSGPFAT

Kd [1]: 9.1 nM
Kd [2]: 0.5 nM
B1: 15G8 (antibody, mouse IgG2a, V domains shown)
VH: EVQLQQSGPELVKPGASVKMSCKASGYTFTNYVIHWMKQKPGQGLEWIGYISPYNDYTKYNEKFEGKATLTSDKSSNTAYMELSSLTSEDSAVYYCARRDYYGSSDYWGQGTTLTVSS
VL: QIVLTQSPAIMSASPGEKVTMTCSASSSVDYMHWYQQKSGTSPKKWIYDTSKLASGVPARFSGSGSGTSYSLTIGSMEAEDAATYYCQQWSSNPPTFGGGTKLEIK
notes: Mouse mAb, Immunization Campaign C; expressed recombinantly as murine IgG2a for SPR; also called mAb 15G8

Kd [1]: 27 nM
Kd [2]: 68 nM
B2: 17B1 (antibody, mouse IgG2a, V domains shown)
VH: QVQLQQSGPELVRPGVSVKISCKGSGYTFTHYAMHWVKQSHTKSLEWIGMISSSSGNTNFNQKFMDKATMTVDKSSTTAYLELARLTFGDSAIYYCARWSYYALFDYWGQGTTVTVSS
VL: ENVLTQSPAIMSASPGEKVTMTCSADSSVDYIHWYQQKSNTSPKLWIYDTSKLASGVPGRFSGSGSGNSYSLTISSMEAEDFATYYCFQGSGYPLTFGSGTKLELK
notes: Mouse mAb, Immunization Campaign C; expressed recombinantly as murine IgG2a for SPR
